Data reported in patent US20250270343A1 (Alector, published 2025).

T1: full-length untagged human GPNMB expressed on cells (human, UniProt Q14956 23-572)
T1 sequence: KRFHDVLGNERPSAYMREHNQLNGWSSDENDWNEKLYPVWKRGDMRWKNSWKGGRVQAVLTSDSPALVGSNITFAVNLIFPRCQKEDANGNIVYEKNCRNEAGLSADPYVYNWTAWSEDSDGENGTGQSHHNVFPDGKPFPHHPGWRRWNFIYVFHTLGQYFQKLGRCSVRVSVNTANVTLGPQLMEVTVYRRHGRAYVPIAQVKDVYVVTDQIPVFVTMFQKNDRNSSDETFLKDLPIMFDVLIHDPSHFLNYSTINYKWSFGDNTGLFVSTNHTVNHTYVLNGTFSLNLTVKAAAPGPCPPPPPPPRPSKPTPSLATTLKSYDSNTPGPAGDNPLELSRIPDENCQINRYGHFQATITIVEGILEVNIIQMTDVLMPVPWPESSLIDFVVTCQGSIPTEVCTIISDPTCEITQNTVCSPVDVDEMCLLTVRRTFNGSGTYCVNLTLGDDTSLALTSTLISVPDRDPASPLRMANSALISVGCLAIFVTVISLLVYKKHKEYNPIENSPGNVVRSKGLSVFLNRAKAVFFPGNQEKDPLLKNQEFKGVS


Columns and labels:
[1] = target: T1, full-length untagged human GPNMB …; test: cell-based or functional assay
[2] = target: T1, full-length untagged human GPNMB …; test: cell-based or functional assay; remark: listed apart in the source
[3] = target: T1, full-length untagged human GPNMB …; test: FACS titration, FS293-huGPNMB+ cells
Description: Cell-based binding measurements were also performed to measure the apparent affinities of anti-GPNMB antibodies of the present disclosure to cell-surface expressed GPNMB. Serial dilutions of the monoclonal anti-GPNMB antibodies were added to 100,000 Freestyle293-huGPNMB+ or B16F10 cells and allowed to achieve binding equilibrium at 4° C. After addition of fluorescently labeled secondary antibody and brief washing steps, MFI values as a function of titrated antibody concentration was recorded via FACS analysis. Curves were fit using nonlinear regression analysis with Graphpad Prism 6 software.

| Binder | EC50 GCase [1] [nM] | EC50 Lyso Tracker [1] [nM] | Fold Decrease Lyso Tracker (max response at 1 µg/ml) [1] [fold] | Fold Increase GCase (max response at 1 µg/ml) [1] [fold] | CD40 (FoB) [2] [FoB] | CD80 (FoB) [2] [FoB] | GCase (FoB) [2] [FoB] | PDL1 (FoB) [2] [FoB] | EC50 [3] [nM] |
| --- | --- | --- | --- | --- | --- | --- | --- | --- | --- |
| anti-GPNMB antibody GPN-83 (antibody, V domains shown) VH: QVQLQESGPGLVKPSETLSLTCTVSGISITTGNYRWSWIRQPPGKGLEWIGYIDYSGTITYNPSLKSRVTITRDTSKNQFSLELSSVTAADTAVYYCARDLTHWYFDVWGQGTLVTVSS VL: DIVMTQSPDSLAVSLGERATINCKSSRSVDYYGIGFVNWYQQKPGQPPKLLIYATSIQGSGVPDRFSGSGSGTDFTLTISSLQAEDVAVYYCQQQKEVPPTFGGGTKVEIK | 0.834 | 1.17 | 0.755 | 1.32 |  |  |  |  |  |
| anti-GPNMB antibody GPN-86 (antibody, V domains shown) VH: QVQLQESGPGLVKPSETLSLTCTVSGISITTGNYRWSWIRQPPGKGLEWIGYIDYSGTITYNPSLKSRVTITRDTSKNQFSLELSSVTAADTAVYYCARDLTHWYFDVWGQGTLVTVSS VL: DIVMTQSPDSLAVSLGERATINCKSSRSVDYYGIGFLNWYQQKPGQPPKLLIYATSKQGSGVPDRFSGSGSGTDFTLTISSLQAEDVAVYYCQQQKEVPPTFGGGTKVEIK | 0.166 | 1.2 | 0.731 | 1.34 |  |  |  |  |  |
| anti-GPNMB antibody GPN-89 (antibody, V domains shown) VH: QVQLQESGPGLVKPSETLSLTCTVSGISITTGNYRWSWIRQPPGKGLEWIGYIDYSGTITYNPSLKSRVTITRDTSKNQFSLELSSVTAADTAVYYCARDLTHWYYDVWGQGTLVTVSS VL: DIVMTQSPDSLAVSLGERATINCKSSRSVDYYGIGFLNWYQQKPGQPPKLLIYATSHQGSGVPDRFSGSGSGTDFTLTISSLQAEDVAVYYCQQQKEVPPTFGGGTKVEIK | 0.898 | 1.18 | 0.757 | 1.35 |  |  |  |  |  |
| anti-GPNMB antibody GPN-87 (antibody, V domains shown) VH: QVQLQESGPGLVKPSETLSLTCTVSGISITTGNYRWSWIRQPPGKGLEWIGYIDYSGTITYNPSLKSRVTITRDTSKNQFSLELSSVTAADTAVYYCARDLTHWYYDVWGQGTLVTVSS VL: DIVMTQSPDSLAVSLGERATINCKSSRSVDYYGIGFLNWYQQKPGQPPKLLIYATSKQGSGVPDRFSGSGSGTDFTLTISSLQAEDVAVYYCQQQKEVPPTFGGGTKVEIK | 0.767 | 1.06 | 0.716 | 1.36 |  |  |  |  |  |
| anti-GPNMB antibody GPN-90 (antibody, V domains shown) VH: QVQLQESGPGLVKPSETLSLTCTVSGISITTGNYRWSWIRQPPGKGLEWIGYIDYSGTITYNPSLKQRVTITRDTSKNQFSLELSSVTAADTAVYYCARDLTHWYFDVWGQGTLVTVSS VL: DIVMTQSPDSLAVSLGERATINCKSSRSVDYYGIGFLNWYQQKPGQPPKLLIYATSHQGSGVPDRFSGSGSGTDFTLTISSLQAEDVAVYYCQQQKEVPPTFGGGTKVEIK | 0.685 | 1.58 | 0.761 | 1.37 |  |  |  |  |  |
| anti-GPNMB antibody GPN-85 (antibody, V domains shown) VH: QVQLQESGPGLVKPSETLSLTCTVSGISITTGNYRWSWIRQPPGKGLEWIGYIDYSGTITYNPSLKQRVTITRDTSKNQFSLELSSVTAADTAVYYCARDLTHWYFDVWGQGTLVTVSS VL: DIVMTQSPDSLAVSLGERATINCKSSRSVDYFGIGFLNWYQQKPGQPPKLLIYATSHQGSGVPDRFSGSGSGTDFTLTISSLQAEDVAVYYCQQQKEVPPTFGGGTKVEIK | 2.2 | 1.39 | 0.755 | 1.31 |  |  |  |  |  |
| anti-GPNMB antibody GPN-01 (antibody, human IgG1, V domains shown, chimeric) VH: QVQLQQSGAELAKPGASVKLSCKASGYNFTNYCIHWVKQRPGQGLEWIGYINPSTGYTEYNQKFKDKATLTADKSSTTAYMQLSSLTSEDSAVYYCARGRYDEFTYWGQGTLVTVSA VL: DIVLTQSPASLAVSLGQRATISCRASKSVSTSTYSYMHWYQQKPGQPPKLLIYLASNLESGVPARFSGSGSGTDFTLNIHPVEEEDAATYYCQHSRELPPTFGGGTKLEIK |  |  |  |  | 1.74 | 1.36 | 1.05 | 1.7 | 0.17 |
| anti-GPNMB antibody GPN-11 (antibody, human IgG1, V domains shown, chimeric) VH: QVQLQQPGAELVKPGASVKLSCKASGYTFTSYWMHWVKQRPGQGLEWIGEINSSNGRTNYNEKFKTKATLTVDRSSSTAYMQLSSLTSEDSAVYYCARLGYYSGSPYPYYAMDCWGQGTSVTVSS VL: DIQMTQSPASLSVSVGETVTITCRASENIYSNLAWYQQKQGKSPQLLVYAATNLADGVPSRFSGSGSGTQYSLKINSLQSEDFGSYYCQHFWNTPPTFGGGTKLEIK |  |  |  |  | 1.7 | 1.25 | 1.24 | 1.64 | 0.3 |
| anti-GPNMB antibody GPN-24 (antibody, human IgG1, V domains shown, chimeric) VH: QVQLQQPGAELVKPGASVKMSCKASGYTFTSYWITWVKQRPGQGLEWIGDIHPGSGRSNYNEKFKNKATLNVDTSSSTVYMQLSSLTSEDSAVYYCARDYLFAYWGQGTLVTVSA VL: DIQMTQSPSSLSASLGERVSLTCRASQEISGYLSWLQQKPDGTIKRLIYSTSTLDSGVPKRFSGSRSGSDYSLTISSLESEDFADYYCLQYTSSPPTFGGGTKLEIK |  |  |  |  | 1.56 | 1.2 | 1.22 | 1.48 | 0.22 |
| anti-GPNMB antibody GPN-26 (antibody, human IgG1, V domains shown, chimeric) VH: EVQLQQSGPELVKPGASVKISCKASGYSFTGYYMNWVRQSPEKSLEWIGEINPSTGITTYNQKFKAKATLTVDKSSNTAFMQLKSLTSEDSAVYYCARPASWFDYWGQGTLVTVSA VL: DIQMTQSPSSLSASLGERVSLTCRASQEISGHLSWLQQKPDGTIKRLIYAASTLDSGVPKRFSGSRSGSDYSLTISSLESEDFADYYCLQYASYPYTFGGGTKLEIK |  |  |  |  | 1.91 | 1.4 |  | 1.88 | 1.09 |
| anti-GPNMB antibody GPN-22 (antibody, human IgG1, V domains shown, chimeric) VH: QVQLQQPGAERVKPGASVKMSCKASGYTFTSYWITWVKQRPGQGLEWIGDIFPGSGSTNYHEKFKSKATLTVDTSSSTAYMQLSSLTSEDSAVYYCSRGYFGSSFSDYWGQGTSVTVSS VL: DIQMTQSPSSLSASLGERVSLTCRTSQEISGYLSWLQQKPDGTIKRLIYSTSTLDSGVPKRFSGSRSGSDYSLTISSLESEDFADYYCLQYASSPPTFGSGTKLEIK |  |  |  |  | 1.7 | 1.16 | 1.21 | 1.76 | 0.33 |
| anti-GPNMB antibody GPN-25 (antibody, human IgG1, V domains shown, chimeric) VH: EVQLQQSGPELVKPGASVKISCKASGYSFTGYYMNWVKQSPEKSLEWIGEINPGSGITTYNQKFKAKATLTVDKSSSTAYLQLKSLTSEDSAVYYCARPASWFAYWGQGTLVTVSA VL: DIQMTQSPSSLSASLGERVSFICRASQEISGHLSWLQQKPDGTIKRLIYAASTLDSGVPKRFSGSRSGSDYSLTISSLESEDFADYYCLQYASYPYTFGGGTKLEIK |  |  |  |  | 1.68 | 1.41 | 1.24 | 1.73 | 0.5 |
| anti-GPNMB antibody GPN-31 (antibody, human IgG1, V domains shown, chimeric) VH: EVQLQQSGPELVKPGASVKISCKASGYSFTGYYMNWVKQSPEKNLEWIGEINPNTGGTTYNQKFKAKATLTVDKSSTTAYMQLKSLTSEDSAVYYCTRPASWFDYWGQGTLVTVSA VL: DIQMTQSPSSLSASLGERVSLTCRASQEISGHLSWLQQKPDGTIKRLIYAASTLDSGVPKRFSGRRSGSDYSLTISSLESEDFADYYCLQYASYPYTFGGGTKLAIK |  |  |  |  | 1.9 | 1.44 | 1.22 | 1.82 | 0.76 |
